Measurements published in patent publication US20080311122A1 (AstraZeneca / MedImmune, published 2008).
Substitutions are numbered along the chain they refer to.

Key:
[1] = target: T1, HMG1 purified from bovine (calf) thymus (bovine, UniProt P10103 2-215); experiment: ELISA, wells coated with calf thymus HMGB1 at 5 ug/mL, antibody at 10 ug/mL, anti-human kappa/lambda-HRP, OD 490
T1 construct: also called Calf thymus HMGB1; thymus HMG1
T1 sequence (looked up): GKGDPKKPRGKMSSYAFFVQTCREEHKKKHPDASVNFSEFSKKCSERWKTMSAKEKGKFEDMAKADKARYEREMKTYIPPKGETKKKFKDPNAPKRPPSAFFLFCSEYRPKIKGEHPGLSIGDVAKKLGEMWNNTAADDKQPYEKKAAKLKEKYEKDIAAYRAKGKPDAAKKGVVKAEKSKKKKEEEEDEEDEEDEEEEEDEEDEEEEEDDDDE
Description: Binding to HMG1 vs. HMG2: Ultra high-binding ELISA plates (ThermoLab systems, #3855) were coated with either 5 ug/mL of Calf thymus HMGB1 or HMBG2 diluted in 10 mM Phosphate buffered saline (PBS), pH 7.2 and incubate overnight at 4 degrees. The plates were washed twice with Ca and Mg free PBS and 100 microliters of anti-HMGB1 antibody diluted in 10 mM PBS, pH 7.2+1% bovine serum albumin (BSA) to a final concentration of 10 ug/mL was added to each well and the plates were incubated 1 hour at room temperature. The wells were washed three times with 100 μl of PBS, pH 7.2. HRP labeled goat-anti-human IgG Kappa-chain (KPL, #14-10-10) and goat-anti-human IgG Lambda-chain (KPL, #14-10-11) were diluted in 10 mM PBS+1% BSA 1:1000 and 100 μl were added to each well and incubated for 1 hour at room temperature. The wells were then washed three times with 100 μl of PBS, pH 7.2. OPD substrate (Pierce chemical company, #34006) was prepared following the manufacturers instructions and 100 μl of prepared substrate was added to each well and the plates incubated at room temperature in the dark for 20-30 minutes. The reaction was stopped with the addition of 100 μl of 2M H₂SO₄, and the plates read on a plate reader at a wavelength of 490 nm.

[2] = target: T2, recombinant HMG1 purified from E. coli as a calmodulin binding protein (CBP) fusion protein (human, UniProt A9RA84 1-215 (Papio anubis entry)); experiment: cell-based or functional assay
T2 sequence: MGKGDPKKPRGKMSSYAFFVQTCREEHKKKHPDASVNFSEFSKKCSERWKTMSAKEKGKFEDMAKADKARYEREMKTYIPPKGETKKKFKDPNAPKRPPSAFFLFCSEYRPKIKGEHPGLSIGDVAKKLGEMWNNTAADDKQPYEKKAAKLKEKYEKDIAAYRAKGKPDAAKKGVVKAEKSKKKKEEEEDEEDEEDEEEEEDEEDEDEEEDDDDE

[3] = target: T3, HMG1 B Box peptide amino acids 150-183; experiment: ELISA, wells coated with HMG1 B Box peptide 150-183 at 10 ug/ml, anti-human IgG-HRP, OD 450
T3 peptide: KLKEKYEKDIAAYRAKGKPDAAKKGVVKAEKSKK
Description: (§1) The plate was then blocked with 4% milk powder dissolved in PBS at 37° C. for 1 hour. The blocking solution was removed and replaced with human anti-HMG1 antibodies at various concentrations (see FIGS. 5A-B). […] HRP activity was detected with Sureblue HRP substrate (KPL). Plates were read at 450 nm using a Kinetic Microplate Reader (Molecular Devices). […] After washing and blocking with 1% BSA in PBS, the biotinylated peptides were individually added into the avidin coated wells and incubated for 30 min at room temperature. The serial diluted antibody G4, S16 and S6 at the initial concentration at 10 μg/ml were then transferred into the wells followed by adding mouse anti human IgG-HRP conjugate (Pierce). Detection was accomplished by adding 50 μl of tetramethylbenzidine (TMB) substrate (KPL) and the absorbance was read at […].

[4] = target: T4, HMG1 B Box peptide amino acids 91-169; experiment: ELISA, wells coated with HMG1 B Box peptide 91-169 at 10 ug/ml, anti-human IgG-HRP, OD 450
T4 construct: also called HMG1 peptide 91-169
T4 peptide: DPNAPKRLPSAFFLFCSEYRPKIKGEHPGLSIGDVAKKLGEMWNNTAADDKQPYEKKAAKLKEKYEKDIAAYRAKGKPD
Description: as §1

[5] = target: T3, HMG1 B Box peptide amino acids 150-183; experiment: ELISA, wells coated with HMG1 B Box peptide 150-183 at 10 ug/ml
Description: as §1

[6] = target: T5, activated HMG1 prepared from LPS stimulated THP-1 cells (human, UniProt P09429 1-215); experiment: cell-based or functional assay
T5 sequence (looked up): T2 sequence

[7] = target: T6, recombinant rat HMGB-1, Europium-labeled (rat, UniProt P63159 1-215, limits assumed, Europium label, molar ratio of HMGB-1 to Eu 1:5); experiment: inhibition of binding of Eu-labeled HMGB-1 to THP-1 cells
T6 construct: also called Europium-labeled HMGB-1; recombinant HMG1 (Thp-1 assay)
T6 sequence (looked up): T2 sequence with E189D, D202E
Description: HMG1 binding to THP-1 Cells: Recombinant rat HMGB-1 was labeled using Eu-labelling Kit from PerkinElmer. Molar ratio of HMGB-1 to Eu is 1:5. THP-1 were cultured as the protocol from ATCC. Cells were harvested and suspended at concentration 1×10⁶/ml in assay buffer containing 1×DELFIA L*R binding buffer (PerkinElmer), 50% of DELFIA stabilizer (PerkinElmer) and 0.05% of sodium azide. 100 μl of cells (1×10⁵) was added into wells in 96 well cell culture plate. The plate was incubated with gentle shaking at 4° C. for one hour. 100 μl of assay buffer containing 2 nM of Europium-labeled HMGB-1 mixed with various concentrations (333, 166.5, 83.25, 41.6, 20.8, 10.4 and 5.2 nM) of human anti-HMGB1 antibodies E11 or G2 or soluble human RAGE-Fc, were added into each wells respectively. After one hour incubation with gentle shaking at 4° C., the cells were washed four times with 1×L*R wash buffer (PerkinElmer) by centrifuging at 1200 rpm×5 min. 200 μl of enhancement solution was added into each well to dissociate and enhance Eu fluorescence at 615 nm. The fluorescence was measured with Wallac Victor Fluorometer. Assay was performed in triplicate and human antibody R3-47 was used the negative isotype control.

[8] = target: T2, recombinant HMG1 purified from E. coli …; experiment: ELISA format 'Soluble HMG1/Captured Antibody' (squares): antibody captured on anti-human IgG Fc, HMG1 in solution
Description: Sandwich ELISA (soluble HMG1): Immunoplates (EIA/RIA plate, High binding, Costar) were coated with anti human IgG Fc at 10 μg/ml in PBS (pH 7.2) and incubated at 4° C. overnight. The coating reagent was removed and the plates were rinsed briefly with PBS. The plates were then blocked with 4% milk for 1 hour at 37° C. and rinsed with PBS. The anti-HMG1 antibodies were diluted in 4% milk. For serial dilutions, the antibodies were used at a starting concentration of 20 μg/ml. The diluted anti-HMG1 antibodies were then added into plate and incubated for 1 hr at 37° C. The plate was then washed 10 times with PBST (PBS/0.1% tween 20) and incubate with antigen (HMGB1, 2 μg/ml; or 0.7 μg/ml for native HMGB1) in 4% milk and incubated at 37° C. for 1 h. The plate was then wash 10 times and incubated with mouse anti-HMGB1, 1 μg/ml in 4% milk at 37° C. for 1 h. The plate was washed 10 times and incubated with anti-mouse IgG-HRP at 1:1000 at 37° C. for 1 h. The plate was then washed and developed. HRP activity was detected with Sureblue HRP substrate (KPL). Plates were read at 450 nm using a Kinetic Microplate Reader (Molecular Devices).

[9] = target: T4, HMG1 B Box peptide amino acids 91-169; experiment: ELISA, wells coated with HMG1 B Box peptide 91-169 at 10 ug/ml
Description: as §1

[10] = target: T7, HMGB1 in human brain tissue of multiple sclerosis plaques (human, UniProt P09429 1-215); experiment: staining of human brain tissue
T7 construct: also called HMGB1 (MS plaques)
T7 sequence (looked up): T2 sequence

[11] = target: T2, recombinant HMG1 purified from E. coli …; experiment: BIAcore, mAb immobilized, HMG1 injected, steady-state model
Description: HMG1 Binding Affinity via BIAcore Analysis: All experiments were performed on a BIAcore 3000 instrument (BIAcore, Inc., Piscataway, N.J.). Briefly, each mAb was immobilized to a CM5 sensor chip using a standard amino coupling chemistry. Separately a reference (control) flow cell was also prepared. Two-fold, serial dilutions of HMG1 in instrument buffer were sequentially injected at a slow flow rate over the individual mAb and reference flow-cell surfaces. Following the binding and dissociation of HMG1, the mAbs surfaces were regenerated with a brief pulse of 1M NaCl-50 mM NaOH. At the end of each experiment, the binding curves were evaluated using a steady-state model available through the BIA evaluation software supplied by BIAcore, Inc. (Piscataway, N.J.).

Mouse RAGE/Fc = target: T8, Mouse RAGE/Fc (mouse, UniProt Q62151 24-342); experiment: ELISA, HMGB1 titrated on RAGE-Fc in the presence of 0.03 µM CpG-A (right panel)
T8 construct: also called RAGE/Fc fusion; not shown: Fc part not described
T8 sequence (Q62151 24-342): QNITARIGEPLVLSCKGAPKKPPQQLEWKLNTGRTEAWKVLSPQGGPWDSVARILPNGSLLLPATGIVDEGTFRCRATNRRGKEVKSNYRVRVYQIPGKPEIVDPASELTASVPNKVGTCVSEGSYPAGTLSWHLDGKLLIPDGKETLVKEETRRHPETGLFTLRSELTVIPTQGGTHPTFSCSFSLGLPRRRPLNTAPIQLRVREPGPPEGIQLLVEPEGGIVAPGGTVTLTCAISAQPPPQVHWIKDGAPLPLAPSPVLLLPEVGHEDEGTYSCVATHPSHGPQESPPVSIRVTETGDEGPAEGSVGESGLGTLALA

B1: anti-HMG1 antibody S12 (antibody, V domains shown)
VH: EVQLLESGGGLVQPGGSLRLSCAASGFTFSKYIMHWVRQAPGKGLEWVSGIVPSGGLTEYADSVKGRFTISRDNSKNTLYLQMNSLRAEDTATYYCAKEIFGQFDYWGQGTLVTVSS
VL: AQSALTQPPSVSAAPRQRVTISCSGSTSNIGNNAVTWYQYFPGKAPKLLIYSDNQRPSGVPDRFSGSKSGTSASLAITGLQAEDEADYYCQSYDRGLSVVFGGGTKLTVL
Q: Which results are given for B1?
A: binding result [1]: binds; IC50, inhibition of rHMG1 stimulated IL-6 release from human PBMC [2]: 1.67 nM; binding result [3]: binds; binding result [4]: binds

B2: anti-HMG1 antibody E11 (antibody, V domains shown)
VH: EVQLLESGGGLVQPGGSLRLSCAASGFTFSRYQMNWVRQAPGKGLEWVSSISPSGGHTHYADSVKGRFTISRDNSKNTLYLQMNSLRAEDTAVYYCAKDGRQGKISTVDHWGQGTLVTVSS
VL: DIQMTQSPGTLSLSPGERATLSCRASQSVRSNFLAWYQQKPGQAPRLLIYGASRRASGIPDRFSGSGFGADFTLSISRLEPEDFAVYYCQQYGSSPNTFGQGSRVEIK
Q: Does B2 bind [5]?
A: no binding (tested: 10 ug/ml (log 1.00))

Q: Does B2 bind [1]?
A: binds

Q: What about the “IC50, inhibition of native activated HMG1 stimulated IL-6 release from human PBMC” value [6] of the same binder?
A: 1.73 nM

Q: And the “IC50, inhibition of HMG1 stimulated NO release from macrophages” value [2]?
A: 101 µg/mL

Q: What about the “IC50, inhibition of rHMG1 stimulated IL-6 release from human PBMC” value [2] of the same binder?
A: 1.22 nM

Q: And the IC50 [7]?
A: 48.1 nM

Q: What about the “EC50 (read off the curve)” value [8] of the same binder?
A: ~0.4 µg/mL

Q: Does B2 bind [9]?
A: no binding (tested: 10 ug/ml (log 1.00))

B3: anti-HMG1 antibody G16 (antibody, V domains shown)
VH: EVQLLESGGGLVQPGGSLRLSCAASGFTFSWYKMTWVRQAPGKGLEWVSSISPSGGFTSYADSVKGRFTISRDNSKNTLYLQMNSLRAEDTAVYYCARDLDIRHAFDIWGQGTMVTVSS
VL: DIQMTQSPGTLSLSPGESGTLSCRASESVSSRHFAWYQQKPGQAPRLLIYGASSRPTGIPDRFSGSGSGTDFTLTLSRLEPEDFAVYFCQYYGSSPYTFGGGTKVEMK
Q: Does B3 bind [5]?
A: no binding (tested: 10 ug/ml (log 1.00))

Q: Does B3 bind [10]?
A: binds

Q: What about the “IC50, inhibition of HMG1 stimulated NO release from macrophages” value [2] of the same binder?
A: 22 µg/mL

Q: What about the “IC50, inhibition of rHMG1 stimulated IL-6 release from human PBMC” value [2] of the same binder?
A: 1.06 nM

Q: Does B3 bind [9]?
A: no binding (tested: 10 ug/ml (log 1.00))

Q: And the Kd [11]?
A: 22 nM

B4: HMGB1/CpG-A complex (other, bovine, UniProt P10103 2-215, looked up)
chain: T1 sequence (looked up)
notes: also called HMGB1/CpG complex; CpG/HMGB1 complex
Q: For B4, which “EC50 (read off the curve)” value (Mouse RAGE/Fc) is on record?
A: ~100 nM
